IntAct's records for PubMed 29892012

B1: Ligand of Numb protein X 2 (Homo sapiens), Q8N448 (parent)
chain: MGTTSDEMVSVEQTSSSSLNPLCFECGQQHWTRENHLYNYQNEVDDDLVCHICLQPLLQPLDTPCGHTFCYKCLRNFLQEKDFCPLDRKRLHFKLCKKSSILVHKLLDKLLVLCPFSSVCKDVMQRCDLEAHLKNRCPGASHRRVALERRKTSRTQAEIENENGPTLLDPAGTLSPEADCLGTGAVPVERHLTSASLSTWSEEPGLDNPAFEESAGADTTQQPLSLPEGEITTIEIHRSNPYIQLGISIVGGNETPLINIVIQEVYRDGVIARDGRLLAGDQILQVNNYNISNVSHNYARAVLSQPCNTLHLTVLRERRFGNRAHNHSDSNSPREEIFQVALHKRDSGEQLGIKLVRRTDEPGVFILDLLEGGLAAQDGRLSSNDRVLAINGHDLKYGTPELAAQIIQASGERVNLTIARPGKPQPGNTIREAGNHSSSSQHHTPPPYYSRPSSHKDLTQCVTCQEKHITVKKEPHESLGMTVAGGRGSKSGELPIFVTSVPPHGCLARDGRIKRGDVLLNINGIDLTNLSHSEAVAMLKASAASPAVALKALEVQIVEEATQNAEEQPSTFSENEYDASWSPSWVMWLGLPSTLHSCHDIVLRRSYLGSWGFSIVGGYEENHTNQPFFIKTIVLGTPAYYDGRLKCGDMIVAVNGLSTVGMSHSALVPMLKEQRNKVTLTVICWPGSLV
partner: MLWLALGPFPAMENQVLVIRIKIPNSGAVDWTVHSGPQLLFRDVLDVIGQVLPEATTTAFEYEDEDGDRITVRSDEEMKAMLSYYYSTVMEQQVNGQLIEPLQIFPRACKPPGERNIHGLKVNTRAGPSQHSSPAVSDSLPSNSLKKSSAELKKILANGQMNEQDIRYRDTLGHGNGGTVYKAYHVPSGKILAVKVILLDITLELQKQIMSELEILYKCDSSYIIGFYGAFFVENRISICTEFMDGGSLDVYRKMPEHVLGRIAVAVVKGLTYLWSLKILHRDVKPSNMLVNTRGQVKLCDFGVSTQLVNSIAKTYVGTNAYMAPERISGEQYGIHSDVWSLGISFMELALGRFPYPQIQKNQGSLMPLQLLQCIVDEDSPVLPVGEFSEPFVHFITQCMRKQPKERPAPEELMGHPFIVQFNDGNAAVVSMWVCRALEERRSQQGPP
B2: Forkhead box protein S1 (Homo sapiens), O43638 (parent)
chain: MQQQPLPGPGAPTTEPTKPPYSYIALIAMAIQSSPGQRATLSGIYRYIMGRFAFYRHNRPGWQNSIRHNLSLNECFVKVPRDDRKPGKGSYWTLDPDCHDMFEHGSFLRRRRRFTRQTGAEGTRGPAKARRGPLRATSQDPGVPNATTGRQCSFPPELPDPKGLSFGGLVGAMPASMCPATTDGRPRPPMEPKEISTPKPACPGELPVATSSSSCPAFGFPAGFSEAESFNKAPTPVLSPESGIGSSYQCRLQALNFCMGADPGLEHLLASAAPSPAPPTPPGSLRAPLPLPTDHKEPWVAGGFPVQGGSGYPLGLTPCLYRTPGMFFFE
B3: Ligand of Numb protein X 2 (Homo sapiens), Q8N448 (parent)
chain: B1 chain

Variants of: B1
Details: with mp2k5_human MAP2K5, Q13163
In the case of P669A, the “effect of a mutation on the interaction” value is reported as “with no effect”.

Variants of: B2
Details: with rbpms_human RBPMS
With T147M the “effect of a mutation on the interaction” value was “with no effect”.

Variants of: B3
Details: with at2l2_human PHYKPL
For P669A, the “effect of a mutation on the interaction” value was “with no effect”.

Variants of: B3
Details: with ip6k2_human IP6K2, Q9UHH9
Chain of ip6k2_human IP6K2, Q9UHH9 (Q9UHH9 whole entry): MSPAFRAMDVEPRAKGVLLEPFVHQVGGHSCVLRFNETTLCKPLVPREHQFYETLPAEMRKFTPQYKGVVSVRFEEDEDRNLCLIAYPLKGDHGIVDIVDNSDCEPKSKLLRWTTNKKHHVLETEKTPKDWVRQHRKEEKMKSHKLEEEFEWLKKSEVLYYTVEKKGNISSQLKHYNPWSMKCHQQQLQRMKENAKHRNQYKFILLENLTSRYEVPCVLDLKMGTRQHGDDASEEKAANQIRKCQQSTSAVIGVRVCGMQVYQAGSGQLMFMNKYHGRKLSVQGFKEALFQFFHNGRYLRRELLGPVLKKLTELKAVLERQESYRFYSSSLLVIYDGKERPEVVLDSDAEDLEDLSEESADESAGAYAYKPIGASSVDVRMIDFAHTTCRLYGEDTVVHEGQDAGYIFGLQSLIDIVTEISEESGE
P669A was tested, and the “effect of a mutation on the interaction” value was “with no effect”.

Variants of: B3
Details: with atpb_human ATP5F1B
For P669A, the “effect of a mutation on the interaction” value was “with no effect”.

Variants of: B3
Details: with optn_human OPTN
For P669A, the “effect of a mutation on the interaction” value was “with no effect”.

Variants of: B3
Details: with tbb5_human TUBB
P669A was tested, and the “effect of a mutation on the interaction” value was “with no effect”.

Variants of: B3
Details: with mk09_human MAPK9, P45984
With P669A the “effect of a mutation on the interaction” value was “with no effect”.

Variants of: B3
Details: with ptcd3_human PTCD3, Q96EY7
P669A was tested, and the “effect of a mutation on the interaction” value was “with no effect”.

Variants of: B3
Details: with lrc8e_human LRRC8E
With P669A the “effect of a mutation on the interaction” value was “with no effect”.
